{"source": "paper PMC10257657", "about": "(Nature Communications, 2023)", "proteins": {"B1": {"name": "VibO, NADPH/FAD-dependent monooxygenase (oxepinone-forming enzyme) of Boreostereum vibrans (enzyme)", "chain": "MAAVENFEGYVEPELFERPGTSLPNKLGVMPQLTWPNVLNGTNCEKPAVPNYKPPSKVDVIIIGAGPVGLTTAACLLRQGITVRILDRSPHPLPVGRADGLQPRSMEVFDLLGLGEEVYHVGIRVEHTTVYKDGKQHIFAESHQAPGNEAHYTGLHACTQTEVEHLLIRDLIRHDILVERPCTATSYTFDEEADASVTHPITVNITNEATGAEEVVTARFLVGSDGAHSMIRKSLPIEFPGVKTDLHWGIVDAVINSDFPHRWTFGTVLNSEYGGCLIIPRERNMVRLYVQLRAEPGKAFDHSKWGPEEILVILNKVFAPYTLSYAEPVDWYTILTINERVATSFTYKDRIFLAGDSCHVHSAKGAFGMNTGVMDAHNLAWKLAMLCRGIAKPSLLASYDVERRENALRAVATSARYLRFVGNCTFQAIDGSGEVDKEADELVVPPGEDKDVFYFKKFVGQVGRFLIGLDVDYAENALNKLSPAVSRARAGYRASNPRVALSRSHSGRLYHSFGHLGQFTLLVFASNMGGALNAKLHALDSYLAGPSSFYHAYGGADTFKIVVVVRATPSQADQRVKTFPFLSKAGHTVYDDQLPLSHFGGDAHALYGVSHEEGAIVVVRPDSWIGTSSTISDARSLESYFDGFLFKSTEGSY"}}, "molecular_target": "the molecule itself", "test": "AUC; analytical ultracentrifugation of VibO (Supplementary Fig. 24b); conditions not shown"}
{"protein": "B1", "values": [{"measurement": "stoichiometry N", "value": 2}]}
